Experimental data as given in the supplement of paper PMC10065799, “High-throughput profiling of sequence recognition by tyrosine kinases and SH2 domains using bacterial peptide display” (eLife, 2023).

Experiments:
[1] = biological target: Fyn (UniProt P06241); test: phosphorylation enrichment, bacterial display (enrichment ratio); higher = better substrate or ligand; peptides without Tyr show the background
[2] = biological target: Fes (UniProt P07332); test: as above
[3] = test system: AncSZ; test: as above
[4] = biological target: Jak2 (UniProt O60674); test: as above
Sequence of Jak2 (O60674 whole entry, looked up): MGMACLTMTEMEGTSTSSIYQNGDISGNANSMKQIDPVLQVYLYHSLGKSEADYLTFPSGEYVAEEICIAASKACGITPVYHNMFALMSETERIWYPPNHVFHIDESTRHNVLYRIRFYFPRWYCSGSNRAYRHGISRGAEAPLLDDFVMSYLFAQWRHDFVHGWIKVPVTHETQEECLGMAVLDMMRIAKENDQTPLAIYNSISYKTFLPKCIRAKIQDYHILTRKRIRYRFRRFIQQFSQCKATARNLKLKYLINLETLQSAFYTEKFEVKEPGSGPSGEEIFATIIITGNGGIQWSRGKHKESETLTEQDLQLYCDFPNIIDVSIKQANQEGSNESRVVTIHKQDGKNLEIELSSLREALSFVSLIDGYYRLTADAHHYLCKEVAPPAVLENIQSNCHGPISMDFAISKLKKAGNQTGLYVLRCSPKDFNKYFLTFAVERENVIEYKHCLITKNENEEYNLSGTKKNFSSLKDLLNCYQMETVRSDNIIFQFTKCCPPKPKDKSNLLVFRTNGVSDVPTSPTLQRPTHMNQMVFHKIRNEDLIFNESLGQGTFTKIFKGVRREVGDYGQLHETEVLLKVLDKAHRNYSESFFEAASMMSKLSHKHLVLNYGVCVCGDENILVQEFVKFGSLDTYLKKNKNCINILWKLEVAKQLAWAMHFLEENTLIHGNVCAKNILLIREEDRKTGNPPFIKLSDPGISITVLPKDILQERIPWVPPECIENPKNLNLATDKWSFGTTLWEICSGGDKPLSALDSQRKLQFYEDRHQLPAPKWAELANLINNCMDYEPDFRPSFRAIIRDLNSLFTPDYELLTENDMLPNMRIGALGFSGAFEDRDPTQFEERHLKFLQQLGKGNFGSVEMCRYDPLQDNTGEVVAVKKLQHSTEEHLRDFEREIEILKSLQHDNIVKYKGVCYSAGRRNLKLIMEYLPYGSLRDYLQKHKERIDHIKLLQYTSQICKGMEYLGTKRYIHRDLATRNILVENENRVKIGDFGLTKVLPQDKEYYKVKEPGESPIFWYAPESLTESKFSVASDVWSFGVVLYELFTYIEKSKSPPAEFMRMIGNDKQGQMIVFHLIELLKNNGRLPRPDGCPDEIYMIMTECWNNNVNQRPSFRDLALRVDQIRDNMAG

[5] = test system: c-Src; test: as above
[6] = biological target: MERTK (UniProt Q12866); test: as above
Sequence of MERTK (Q12866 whole entry, looked up): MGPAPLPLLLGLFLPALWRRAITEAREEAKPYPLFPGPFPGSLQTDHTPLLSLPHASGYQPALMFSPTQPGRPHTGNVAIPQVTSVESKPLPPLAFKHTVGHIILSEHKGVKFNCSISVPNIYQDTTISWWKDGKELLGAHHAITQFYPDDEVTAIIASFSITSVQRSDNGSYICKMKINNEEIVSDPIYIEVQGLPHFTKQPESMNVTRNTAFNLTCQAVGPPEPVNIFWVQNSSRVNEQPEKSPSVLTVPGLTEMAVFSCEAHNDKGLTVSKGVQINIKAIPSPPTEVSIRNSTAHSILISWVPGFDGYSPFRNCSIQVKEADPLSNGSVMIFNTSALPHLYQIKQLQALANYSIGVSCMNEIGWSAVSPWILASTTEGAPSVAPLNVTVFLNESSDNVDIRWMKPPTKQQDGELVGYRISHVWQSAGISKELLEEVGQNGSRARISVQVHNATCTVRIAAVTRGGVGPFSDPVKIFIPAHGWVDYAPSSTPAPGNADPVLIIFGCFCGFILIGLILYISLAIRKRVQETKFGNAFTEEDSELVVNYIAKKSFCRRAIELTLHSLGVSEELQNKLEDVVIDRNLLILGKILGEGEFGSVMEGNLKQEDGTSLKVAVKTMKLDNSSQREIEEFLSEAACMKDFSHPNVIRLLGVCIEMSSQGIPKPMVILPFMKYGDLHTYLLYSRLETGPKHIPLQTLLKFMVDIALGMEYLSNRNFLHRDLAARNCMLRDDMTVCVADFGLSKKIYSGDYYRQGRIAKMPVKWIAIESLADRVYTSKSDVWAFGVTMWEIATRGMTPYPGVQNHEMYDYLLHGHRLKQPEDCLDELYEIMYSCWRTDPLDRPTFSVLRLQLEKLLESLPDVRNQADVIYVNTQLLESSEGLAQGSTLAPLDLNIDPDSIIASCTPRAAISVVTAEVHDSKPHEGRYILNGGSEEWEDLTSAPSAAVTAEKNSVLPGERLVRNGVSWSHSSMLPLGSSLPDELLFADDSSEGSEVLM

[7] = biological target: EPHB2 (UniProt P29323); test: as above
[8] = test system: c-Abl (mouse); test: as above
[9] = biological target: EPHB1 (UniProt P54762); test: as above
Sequence of EPHB1 (P54762 whole entry, looked up): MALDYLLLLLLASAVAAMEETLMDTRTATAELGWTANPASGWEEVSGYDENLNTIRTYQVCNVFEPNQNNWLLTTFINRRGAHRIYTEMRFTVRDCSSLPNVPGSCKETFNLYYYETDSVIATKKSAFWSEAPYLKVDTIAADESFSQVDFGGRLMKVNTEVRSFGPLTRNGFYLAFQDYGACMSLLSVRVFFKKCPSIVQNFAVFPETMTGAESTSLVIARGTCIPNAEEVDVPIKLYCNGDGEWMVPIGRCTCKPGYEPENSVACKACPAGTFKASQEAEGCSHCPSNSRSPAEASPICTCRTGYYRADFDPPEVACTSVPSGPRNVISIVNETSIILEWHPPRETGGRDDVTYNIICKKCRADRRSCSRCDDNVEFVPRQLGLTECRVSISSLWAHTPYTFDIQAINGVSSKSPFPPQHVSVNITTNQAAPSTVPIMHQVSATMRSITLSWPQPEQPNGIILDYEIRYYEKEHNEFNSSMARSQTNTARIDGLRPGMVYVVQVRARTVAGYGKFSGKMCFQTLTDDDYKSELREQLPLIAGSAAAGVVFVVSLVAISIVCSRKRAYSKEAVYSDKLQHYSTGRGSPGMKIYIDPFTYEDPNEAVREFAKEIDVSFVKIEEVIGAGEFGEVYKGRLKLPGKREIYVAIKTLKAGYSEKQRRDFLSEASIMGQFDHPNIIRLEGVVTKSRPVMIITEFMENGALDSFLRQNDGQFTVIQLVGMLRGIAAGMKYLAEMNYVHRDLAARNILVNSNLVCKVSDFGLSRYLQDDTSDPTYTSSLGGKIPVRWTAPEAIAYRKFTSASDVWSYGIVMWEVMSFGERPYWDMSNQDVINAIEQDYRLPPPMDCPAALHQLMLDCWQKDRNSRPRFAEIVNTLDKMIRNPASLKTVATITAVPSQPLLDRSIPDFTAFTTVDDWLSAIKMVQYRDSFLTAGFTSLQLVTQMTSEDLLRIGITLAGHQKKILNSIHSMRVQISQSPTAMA

[10] = test system: Fer (mouse); test: as above
[11] = biological target: FGFR3 (UniProt P22607); test: as above
[12] = biological target: Hck (UniProt P08631); test: as above
[13] = biological target: FGFR1 (UniProt P11362); test: as above
[14] = biological target: SHP2-C SH2; test: SH2 binding enrichment of the phosphorylated peptide, bacterial display (enrichment ratio); higher = better substrate or ligand; peptides without Tyr show the background
[15] = biological target: Grb2 SH2 (UniProt P62993); test: as above
Sequence of Grb2 SH2 (P62993 whole entry, looked up): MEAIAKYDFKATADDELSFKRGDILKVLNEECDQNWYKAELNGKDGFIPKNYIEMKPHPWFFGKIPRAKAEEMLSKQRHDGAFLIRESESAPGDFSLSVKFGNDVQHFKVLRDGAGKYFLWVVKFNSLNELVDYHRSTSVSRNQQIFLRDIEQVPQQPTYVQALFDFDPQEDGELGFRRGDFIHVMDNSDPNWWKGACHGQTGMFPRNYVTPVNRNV

[16] = biological target: c-Src SH2; test: as above
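Throughout, for SH2 binding enrichment of the phosphorylated peptide, bacterial display: peptide library displayed on the E. coli surface as eCPX fusions, selected cells deep-sequenced, score is each peptide's frequency after selection divided by its frequency in the input.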
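Throughout, for phosphorylation enrichment, bacterial display: 11-residue human phosphosite peptides and single-mutation variants displayed on the E. coli surface, counted by deep sequencing, each peptide's frequency after selection divided by its frequency in the unselected input library; frequency after pTyr selection over input frequency; kinase dosed for 20-30% of maximal phosphorylation in three min.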

Sequence of Fyn (P06241 whole entry, looked up): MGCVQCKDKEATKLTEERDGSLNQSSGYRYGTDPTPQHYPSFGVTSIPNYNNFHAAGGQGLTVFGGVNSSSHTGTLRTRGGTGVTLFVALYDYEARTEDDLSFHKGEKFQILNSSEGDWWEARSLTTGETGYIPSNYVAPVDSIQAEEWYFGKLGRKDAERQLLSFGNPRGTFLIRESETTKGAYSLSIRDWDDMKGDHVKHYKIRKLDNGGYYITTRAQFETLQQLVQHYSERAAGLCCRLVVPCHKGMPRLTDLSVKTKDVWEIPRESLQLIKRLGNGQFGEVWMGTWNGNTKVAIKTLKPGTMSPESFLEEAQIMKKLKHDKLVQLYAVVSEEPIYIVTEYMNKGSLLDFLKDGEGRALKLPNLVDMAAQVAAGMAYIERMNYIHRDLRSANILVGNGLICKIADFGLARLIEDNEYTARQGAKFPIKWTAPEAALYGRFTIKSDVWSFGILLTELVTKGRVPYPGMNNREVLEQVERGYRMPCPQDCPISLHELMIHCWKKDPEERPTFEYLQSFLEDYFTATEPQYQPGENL
Sequence of Fes (P07332 whole entry, looked up): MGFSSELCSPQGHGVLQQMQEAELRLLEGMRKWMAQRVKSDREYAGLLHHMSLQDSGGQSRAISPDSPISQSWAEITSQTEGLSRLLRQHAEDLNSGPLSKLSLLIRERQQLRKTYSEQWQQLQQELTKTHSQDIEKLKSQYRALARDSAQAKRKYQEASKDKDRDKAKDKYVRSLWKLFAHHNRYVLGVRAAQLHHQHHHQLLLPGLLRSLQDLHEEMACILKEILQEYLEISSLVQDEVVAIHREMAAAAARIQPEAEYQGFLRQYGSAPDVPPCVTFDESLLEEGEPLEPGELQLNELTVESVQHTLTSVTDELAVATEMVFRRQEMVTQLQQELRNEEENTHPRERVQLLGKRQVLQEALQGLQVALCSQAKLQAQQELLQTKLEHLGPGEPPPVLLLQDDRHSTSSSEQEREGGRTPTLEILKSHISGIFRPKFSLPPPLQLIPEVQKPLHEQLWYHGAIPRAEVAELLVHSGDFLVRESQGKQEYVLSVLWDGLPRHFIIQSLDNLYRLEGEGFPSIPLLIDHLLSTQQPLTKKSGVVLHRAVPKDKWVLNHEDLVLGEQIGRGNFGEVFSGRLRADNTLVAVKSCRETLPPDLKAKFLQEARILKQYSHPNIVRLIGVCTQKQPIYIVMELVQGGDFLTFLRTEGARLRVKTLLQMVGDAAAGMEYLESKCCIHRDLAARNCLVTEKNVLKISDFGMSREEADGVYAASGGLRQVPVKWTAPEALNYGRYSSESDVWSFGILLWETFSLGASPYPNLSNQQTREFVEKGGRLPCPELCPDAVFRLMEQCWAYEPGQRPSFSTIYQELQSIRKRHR

## CKSIHYDLVFL [COL22A1_Y37_V35I]
[1]
  phosphorylation enrichment: 0.574
[2]
  phosphorylation enrichment: 1.55
[3]
  phosphorylation enrichment: 1.49
[4]
  phosphorylation enrichment: 1.36
[5]
  phosphorylation enrichment: 0.562
[6]
  phosphorylation enrichment: 1.51
[7]
  phosphorylation enrichment: 0.755
[8]
  phosphorylation enrichment: 0.936
[9]
  phosphorylation enrichment: 0.751
[10]
  phosphorylation enrichment: 8.93
[11]
  phosphorylation enrichment: 0.895
[12]
  phosphorylation enrichment: 0.686
[13]
  phosphorylation enrichment: 0.651
[14]
  SH2 binding enrichment: 0.573
[15]
  SH2 binding enrichment: 0.736
[16]
  SH2 binding enrichment: 1.06

## SLNAVYPRAGS [OAS3_Y376]
[1]
  phosphorylation enrichment: 0.331
[2]
  phosphorylation enrichment: 0.481
[3]
  phosphorylation enrichment: 0.451
[4]
  phosphorylation enrichment: 0.462
[5]
  phosphorylation enrichment: 0.368
[6]
  phosphorylation enrichment: 0.378
[7]
  phosphorylation enrichment: 0.323
[8]
  phosphorylation enrichment: 0.507
[9]
  phosphorylation enrichment: 0.306
[10]
  phosphorylation enrichment: 0.314
[11]
  phosphorylation enrichment: 0.357
[12]
  phosphorylation enrichment: 0.368
[13]
  phosphorylation enrichment: 0.384
[14]
  SH2 binding enrichment: 0.509
[15]
  SH2 binding enrichment: 0.872
[16]
  SH2 binding enrichment: 0.452

## LVFIKYLPEWT [PSEN1_Y240]
[1]
  phosphorylation enrichment: 0.361
[2]
  phosphorylation enrichment: 1.92
[3]
  phosphorylation enrichment: 1.78
[4]
  phosphorylation enrichment: 1.97
[5]
  phosphorylation enrichment: 0.4
[6]
  phosphorylation enrichment: 0.769
[7]
  phosphorylation enrichment: 0.734
[8]
  phosphorylation enrichment: 1.11
[9]
  phosphorylation enrichment: 0.898
[10]
  phosphorylation enrichment: 0.744
[11]
  phosphorylation enrichment: 1.27
[12]
  phosphorylation enrichment: 0.555
[13]
  phosphorylation enrichment: 0.615
[14]
  SH2 binding enrichment: 1.43
[15]
  SH2 binding enrichment: 1.6
[16]
  SH2 binding enrichment: 0.902

## VQSASYLNACL [MCM3AP_Y864]
[1]
  phosphorylation enrichment: 0.419
[2]
  phosphorylation enrichment: 0.813
[3]
  phosphorylation enrichment: 0.759
[4]
  phosphorylation enrichment: 0.674
[5]
  phosphorylation enrichment: 0.495
[6]
  phosphorylation enrichment: 0.46
[7]
  phosphorylation enrichment: 0.473
[8]
  phosphorylation enrichment: 0.645
[9]
  phosphorylation enrichment: 0.418
[10]
  phosphorylation enrichment: 0.47
[11]
  phosphorylation enrichment: 0.551
[12]
  phosphorylation enrichment: 0.384
[13]
  phosphorylation enrichment: 0.381
[14]
  SH2 binding enrichment: 0.694
[15]
  SH2 binding enrichment: 1.11
[16]
  SH2 binding enrichment: 0.555

## VARAVYQAVLS [SMG1_Y549_H546R]
[1]
  phosphorylation enrichment: 1.07
[2]
  phosphorylation enrichment: 0.97
[3]
  phosphorylation enrichment: 0.999
[4]
  phosphorylation enrichment: 0.722
[5]
  phosphorylation enrichment: 1.36
[6]
  phosphorylation enrichment: 0.758
[7]
  phosphorylation enrichment: 0.567
[8]
  phosphorylation enrichment: 0.75
[9]
  phosphorylation enrichment: 0.526
[10]
  phosphorylation enrichment: 1.33
[11]
  phosphorylation enrichment: 0.585
[12]
  phosphorylation enrichment: 2.26
[13]
  phosphorylation enrichment: 0.468
[14]
  SH2 binding enrichment: 0.834
[15]
  SH2 binding enrichment: 0.708
[16]
  SH2 binding enrichment: 1

## WASGIYYVPKG [APBB1IP_Y340_R335W]
[1]
  phosphorylation enrichment: 10
[2]
  phosphorylation enrichment: 1.05
[3]
  phosphorylation enrichment: 3.2
[4]
  phosphorylation enrichment: 8.67
[5]
  phosphorylation enrichment: 6.92
[6]
  phosphorylation enrichment: 11.5
[7]
  phosphorylation enrichment: 17
[8]
  phosphorylation enrichment: 31.1
[9]
  phosphorylation enrichment: 15.3
[10]
  phosphorylation enrichment: 5.91
[11]
  phosphorylation enrichment: 7.15
[12]
  phosphorylation enrichment: 10.1
[13]
  phosphorylation enrichment: 8.05
[14]
  SH2 binding enrichment: 0.959
[15]
  SH2 binding enrichment: 1.21
[16]
  SH2 binding enrichment: 0.883

## RASSVYTRSTG [CCR5_Y339]
[1]
  phosphorylation enrichment: 0.608
[2]
  phosphorylation enrichment: 1.5
[3]
  phosphorylation enrichment: 0.651
[4]
  phosphorylation enrichment: 0.655
[5]
  phosphorylation enrichment: 0.875
[6]
  phosphorylation enrichment: 1.21
[7]
  phosphorylation enrichment: 0.552
[8]
  phosphorylation enrichment: 0.721
[9]
  phosphorylation enrichment: 0.591
[10]
  phosphorylation enrichment: 0.552
[11]
  phosphorylation enrichment: 0.47
[12]
  phosphorylation enrichment: 0.741
[13]
  phosphorylation enrichment: 0.48
[14]
  SH2 binding enrichment: 0.489
[15]
  SH2 binding enrichment: 0.809
[16]
  SH2 binding enrichment: 0.472

## EGQKIYIDDNS [PIP4K2A_Y246_N251S]
[1]
  phosphorylation enrichment: 0.53
[2]
  phosphorylation enrichment: 1.09
[3]
  phosphorylation enrichment: 0.862
[4]
  phosphorylation enrichment: 0.886
[5]
  phosphorylation enrichment: 0.526
[6]
  phosphorylation enrichment: 0.461
[7]
  phosphorylation enrichment: 0.549
[8]
  phosphorylation enrichment: 0.689
[9]
  phosphorylation enrichment: 0.499
[10]
  phosphorylation enrichment: 0.459
[11]
  phosphorylation enrichment: 0.645
[12]
  phosphorylation enrichment: 0.465
[13]
  phosphorylation enrichment: 0.446
[14]
  SH2 binding enrichment: 0.656
[15]
  SH2 binding enrichment: 0.661
[16]
  SH2 binding enrichment: 0.538
